Patent publication US20200325179A1 (EUROPEAN MOLECULAR BIOLOGY LABORATORY, published 2020)
Positions count from the first letter of the chain named. Ends that are not written are not given here.

Tests used:
[1] = biological target: T1, ADDomer with one cysteine mutation Q476C (synthetic penton base protomer based on …); assay: non-reducing SDS-PAGE and blot; biotinylated peptide detected with Alexa488 avidin, ADDomer with a specific antibody and a Cy3 secondary antibody; covalent disulfide
T1 construct: Virus-like particle: 12 pentamers of 5 engineered penton base protomers each; also called Cys-ADDomer; Cys modified ADDomer
T1 chain: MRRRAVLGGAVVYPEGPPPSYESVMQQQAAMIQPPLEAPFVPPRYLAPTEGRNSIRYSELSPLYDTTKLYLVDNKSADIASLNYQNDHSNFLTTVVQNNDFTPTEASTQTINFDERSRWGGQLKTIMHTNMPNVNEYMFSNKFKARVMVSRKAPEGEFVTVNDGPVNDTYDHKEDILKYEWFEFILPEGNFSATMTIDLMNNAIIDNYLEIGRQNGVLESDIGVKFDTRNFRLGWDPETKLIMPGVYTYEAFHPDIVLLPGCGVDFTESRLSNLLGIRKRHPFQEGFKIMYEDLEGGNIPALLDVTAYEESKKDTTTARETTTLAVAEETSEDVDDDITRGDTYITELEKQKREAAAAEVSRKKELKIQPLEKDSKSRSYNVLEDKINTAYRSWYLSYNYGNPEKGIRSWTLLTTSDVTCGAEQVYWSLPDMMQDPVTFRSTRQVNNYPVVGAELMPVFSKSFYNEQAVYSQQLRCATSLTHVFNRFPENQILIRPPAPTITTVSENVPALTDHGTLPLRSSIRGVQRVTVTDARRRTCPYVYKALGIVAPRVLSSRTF
Protocol: (§1) FIG. 14: Covalent coupling of “STICKER” peptide to ADDomer containing targeted cystein mutations. Wild-type ADDomer (wt) and ADDomer with one cysteine mutation (K363C, Q476C or A477C, respectively) were incubated with STICKER peptides (C20 (SEQ ID NO: 77) and C9 (SEQ ID NO: 75), respectively). SDS-PAGE analysis was performed under reducing (+bMeSH) and non-reducing (−bMeSH) conditions and transferred to a PVDF membrane. ADDomer (dark grey) and STICKER peptide (light grey) were visualized by binding of labelled antibody and Avidin binding, respectively, evidencing STICKER binding to cysteine-mutant ADDomer by specific disulfide bond formation (marked by white circle in lower panel)
(§2) To widen the ADDomer potential, a system enabling the addition of extra epitopes at the ADDomer was developed. Single cysteines were inserted at specific locationd of the ADDomer sequence (either K363C or Q476C or A477C). […] Complexes were run on SDS-PAGE and ADDomer was detected by a specific antibody and a secondary antibody labelled with Cy3 while the biotinylated peptide was detected by Alexa488 labeled avidin. When the right Cys-ADDomer/peptide was used, the presence of peptide was detected at the ADDomer band size (circle in FIG. 14). […]

[2] = biological target: T2, ADDomer with one cysteine mutation A477C (synthetic penton base protomer based on …); assay: as above
T2 construct: Virus-like particle: 12 pentamers of 5 engineered penton base protomers each; also called Cys-ADDomer; Cys modified ADDomer
T2 chain: T1 chain with C476Q, A477C
Protocol: as §1, §2

Binder: AKRARLSTCFNPVYPYEDES (also: biotinylated (position not given here), Detected by Alexa488 labelled avidin) [STICKER peptide C9 (fibre protein fragment, Cys at position 9)]
- binding result [1]: binds
- binding result [2]: binds
